Laboratory results as given in publication PMC6743029.

Test: Western blot, Huh7.5.1 lysates, 16 h
Conditions: glycan lost; control: untreated

B1: SR-BI (scavenger receptor class B, type I): tunicamycin (protein)
parent chain: MGCSAKARWAAGALGVAGLLCAVLGAVMIVMVPSLIKQQVLKNVRIDPSSLSFNMWKEIPIPFYLSVYFFDVMNPSEILKGEKPQVRERGPYVYREFRHKSNITFNNNDTVSFLEYRTFQFQPSKSHGSESDYIVMPNILVLGAAVMMENKPMTLKLIMTLAFTTLGERAFMNRTVGEIMWGYKDPLVNLINKYFPGMFPFKDKFGLFAELNNSDSGLFTVFTGVQNISRIHLVDKWNGLSKVDFWHSDQCNMINGTSGQMWPPFMTPESSLEFYSPEACRSMKLMYKESGVFEGIPTYRFVAPKTLFANGSIYPPNEGFCPCLESGIQNVSTCRFSAPLFLSHPHFLNADPVLAEAVTGLHPNQEAHSLFLDIHPVTGIPMNCSVKLQLSLYMKSVAGIGQTGKIEPVVLPLLWFAESGAMEGETLHTFYTQLVLMPKVMHYAQYVLLALGCVLLLVPVICQIRSQVGAGQRAARADSHSLACWGKGASDRTLWPTAAWSPPPAAVLRLCRSGSGHCWGLRSTLASFACRVATTLPVLEGLGPSLGGGTGS
- expression_or_secretion: decreases
